{"source": "paper PMC10248720", "binders": {"B1": {"name": "PRX111-P2 (dsDNA)", "DNA 1": "TTCACTTAGCTTAATGCTGCTGGTGGC", "DNA 2": "GCCACCAGCAGCATTAAGCTAAGTGAA"}}, "target": "T1, WOX11 (rice, UniProt Q0D3I7 1-262)", "T1 sequence": "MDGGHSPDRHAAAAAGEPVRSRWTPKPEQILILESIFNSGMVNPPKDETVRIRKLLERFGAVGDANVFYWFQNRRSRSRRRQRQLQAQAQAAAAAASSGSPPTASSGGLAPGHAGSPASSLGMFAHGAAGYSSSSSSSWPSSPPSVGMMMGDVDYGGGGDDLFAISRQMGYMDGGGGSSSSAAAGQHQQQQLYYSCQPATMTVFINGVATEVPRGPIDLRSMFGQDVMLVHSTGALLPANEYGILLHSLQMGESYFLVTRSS", "assay": "EMSA"}
{"binder": "B1", "values": [{"measurement": "binding result", "result": "binds"}]}
